Measurements: publication PMC10542344 (Communications Biology, 2023)

What was measured:
[1] = biological target: T1, human IL-17A (recombinant) (human, UniProt Q16552); assay: cell-based or functional assay
[2] = biological target: T1, human IL-17A (recombinant); assay: SPR; Biacore T100, CM5 chip; tested antibody captured on anti-human IgG to about 500 RU; IL-17A analyte in PBS 0.05% tween, two- or three-fold dilutions, multi-cycle kinetics; settings: both partners purified
insulin = biological target: T2, insulin (Homo sapiens (assumed), UniProt P01308); assay: ELISA; polyspecificity assay; plates coated with 5 μg/ml antigen, blocked with PBS 0.5% BSA; 100 nM antibody 1 h at RT; anti-human Fc-HRP; settings: both partners purified
T2 construct: insulin B chain; insulin A chain
T2 sequence (P01308 whole entry, looked up): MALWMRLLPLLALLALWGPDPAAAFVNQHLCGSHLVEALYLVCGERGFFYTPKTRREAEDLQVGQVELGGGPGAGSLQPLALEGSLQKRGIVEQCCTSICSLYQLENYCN

hTNFR2 = biological target: T3, hTNFR2 (Homo sapiens, UniProt P20333); assay: as above; settings: both partners purified
T3 construct: human TNF receptor 2
T3 sequence (P20333 23-461): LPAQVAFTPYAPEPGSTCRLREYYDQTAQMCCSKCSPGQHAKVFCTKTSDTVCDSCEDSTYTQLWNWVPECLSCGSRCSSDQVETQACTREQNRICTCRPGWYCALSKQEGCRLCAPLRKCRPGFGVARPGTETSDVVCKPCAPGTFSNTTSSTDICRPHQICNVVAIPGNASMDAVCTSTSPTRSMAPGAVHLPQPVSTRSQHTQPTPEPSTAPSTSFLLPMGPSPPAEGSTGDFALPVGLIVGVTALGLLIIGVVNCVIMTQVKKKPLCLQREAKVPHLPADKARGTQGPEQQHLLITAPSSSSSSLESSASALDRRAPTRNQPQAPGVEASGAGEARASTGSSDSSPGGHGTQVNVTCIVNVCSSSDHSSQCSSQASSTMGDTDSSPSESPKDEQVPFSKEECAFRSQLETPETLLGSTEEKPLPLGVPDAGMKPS

BSA = biological target: T4, BSA (Bos taurus, UniProt P02769); assay: as above; settings: both partners purified
T4 construct: bovine serum albumin, printed only as BSA; a BSA coating is not described
T4 sequence (P02769 25-607): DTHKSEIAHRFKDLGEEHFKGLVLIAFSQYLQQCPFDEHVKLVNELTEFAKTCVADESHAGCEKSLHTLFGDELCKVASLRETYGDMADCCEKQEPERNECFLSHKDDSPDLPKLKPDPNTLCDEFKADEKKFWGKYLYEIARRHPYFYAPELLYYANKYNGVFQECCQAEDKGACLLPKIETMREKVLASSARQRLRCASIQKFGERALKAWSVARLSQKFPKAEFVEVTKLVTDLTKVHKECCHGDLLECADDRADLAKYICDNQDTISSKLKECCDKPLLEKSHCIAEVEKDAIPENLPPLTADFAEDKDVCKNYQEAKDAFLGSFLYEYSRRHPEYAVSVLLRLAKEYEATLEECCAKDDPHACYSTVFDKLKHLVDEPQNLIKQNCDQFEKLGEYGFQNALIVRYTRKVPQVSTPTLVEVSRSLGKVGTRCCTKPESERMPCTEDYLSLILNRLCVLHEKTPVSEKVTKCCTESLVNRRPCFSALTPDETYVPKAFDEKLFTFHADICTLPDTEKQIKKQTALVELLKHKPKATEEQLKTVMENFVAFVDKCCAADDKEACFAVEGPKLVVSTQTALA

human IL-2 = biological target: T5, human IL-2 (Homo sapiens, UniProt P60568); assay: as above; settings: both partners purified
T5 construct: human interleukin-2; also called hIL-2
T5 sequence (P60568 21-153): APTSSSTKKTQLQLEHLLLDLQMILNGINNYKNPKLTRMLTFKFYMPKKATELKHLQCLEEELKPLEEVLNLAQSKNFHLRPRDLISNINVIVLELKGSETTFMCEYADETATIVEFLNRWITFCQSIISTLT

[3] = biological target: T6, biotinylated human IL-17A (Homo sapiens, UniProt Q16552, biotin (site not stated)); assay: flow cytometry on cells; scFv displayed on yeast EBY-100; incubated with soluble antigen (biotinylated human IL-17A in PBS 0.1% BSA, 1 h), labelled with anti-Myc-FITC (expression) and streptavidin-APC (binding); settings: one partner purified
T6 construct: human interleukin-17A; also called hIL-17A; biotinylated IL-17A
T6 sequence (Q16552 24-155): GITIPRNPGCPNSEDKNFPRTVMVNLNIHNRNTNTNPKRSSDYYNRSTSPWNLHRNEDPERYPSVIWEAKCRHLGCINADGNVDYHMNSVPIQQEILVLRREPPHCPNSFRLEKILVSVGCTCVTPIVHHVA

[4] = biological target: T7, IL-1β (used in the yeast display FACS analysis) (Homo sapiens, UniProt P01584); assay: as above; settings: one partner purified
T7 construct: interleukin-1 beta; Species is said only of the IL-1β of the crystal (human)

recombinant human IL-1β = biological target: T8, recombinant human IL-1β (Homo sapiens); assay: crystal structure; AAL160 Fab with a 1.5-fold excess of recombinant human IL-1β, complex purified by SEC; 3.30 Å; settings: both partners purified
T8 construct: human interleukin-1 beta; also called IL-1b

T1 sequence (Q16552 24-155): as above

IC50 of inhibition of IL-17A dependent IL-6 secretion by BJ fibroblasts (1 nM IL-17A; blocks IL-17A binding to IL-17RA on the cells) [1] | Kd [2] | binding result (insulin) | binding result (hTNFR2) | binding result (BSA) | binding result (human IL-2) | binding result [3] | binding result [4] | binding result (recombinant human IL-1β) | Binder
4.8 nM | 0.75 nM | no binding (tested: 100 nM antibody) | no binding (tested: 100 nM antibody) | no binding (tested: 100 nM antibody) | no binding (tested: 100 nM antibody) |  |  |  | BDG11.001 (clone 11.4C_11.001 as soluble human IgG1) (antibody, V domains shown, as the VH of m6 (clone 11.4C_11.001); the same heavy chain stands in 11.003 (PDB 7Z2M); changes are against the VH of AAL160; human IgG1 heavy-chain constant region, from the plasmid pSF-CMV-HuIgG1_HC; as the VL of m6 (clone 11.4C_11.001); has W30, Y93, W94; the light chain of 11.003 in PDB 7Z2M differs from it at position 30 (Phe for Trp); as in the light chain of 11.003 in PDB 7Z2M; IgG1; also …) VH: EVQLVQSGAEVKKPGESLKISCKGSGYSFTSYWIGWVRQMPGKGLEWMGIIYPSDSDTRYSPSFQGQVTISADKSISTAYLQWSSLKASDTAMYYCARYPNYGAFDIWGQGTMVTVSS VL: EIVLTQSPATLSLSPGERATLSCRASQSVWSYLAWYQQKPGQAPRLLIYDASNRATGIPARFSGSGSGTDFTLTISSLEPEDFAVYYCQQYFYWGWPFGQGTKLEIK
50.5 nM |  | no binding (tested: 100 nM antibody) | no binding (tested: 100 nM antibody) | no binding (tested: 100 nM antibody) | no binding (tested: 100 nM antibody) |  |  |  | BDG11.006 (human IgG1) (antibody, V domains shown, as the VH of m7 (BDG11.001); human IgG1 heavy-chain constant region, from the plasmid pSF-CMV-HuIgG1_HC; as the VL of m7 (BDG11.001) with one substitution; light-chain numbering; as in the light chain of 11.003 in PDB 7Z2M; IgG1; single mutant of BDG11.001; source: Expi-CHO, transfected, purified from the supernatant (protein A beads); copies: 2 + 2) VH: EVQLVQSGAEVKKPGESLKISCKGSGYSFTSYWIGWVRQMPGKGLEWMGIIYPSDSDTRYSPSFQGQVTISADKSISTAYLQWSSLKASDTAMYYCARYPNYGAFDIWGQGTMVTVSS VL: EIVLTQSPATLSLSPGERATLSCRASQSVWSYLAWYQQKPGQAPRLLIYDASNRATGIPARFSGSGSGTDFTLTISSLEPEDFAVYYCQQYFYNGWPFGQGTKLEIK
 |  |  |  |  |  | binds |  |  | clone 11.4_C13 scFv displayed on yeast (scFv, V domains shown, as the VH of m1 (AAL160) with changes; has no T100P; three repeats of the G4S linker between VH and VL; as the VL of m1 (AAL160) with changes; source: yeast surface display, EBY-100, induced with galactose) VH: EVQLVQSGAEVKKPGESLKISCKGSGYSFTSYWIGWVRQMPGKGLEWMGIIYPSDSDTRYSPSFQGQVTISADKSISTAYLQWSSLKASDTAMYYCARYTNYEAFDIWGQGTMVTVSS VL: EIVLTQSPATLSLSPGERATLSCRASQSVWSYLAWYQQKPGQAPRLLIYDASNRATGIPARFSGSGSGTDFTLTISSLEPEDFAVYYCQQSFYWPFPFGQGTKLEIK
163 nM |  | no binding (tested: 100 nM antibody) | no binding (tested: 100 nM antibody) | no binding (tested: 100 nM antibody) | no binding (tested: 100 nM antibody) |  |  |  | BDG11.004 (human IgG1) (antibody, V domains shown, as the VH of m7 (BDG11.001); human IgG1 heavy-chain constant region, from the plasmid pSF-CMV-HuIgG1_HC; as the VL of m7 (BDG11.001) with one substitution; light-chain numbering; as in the light chain of 11.003 in PDB 7Z2M; IgG1; single mutant of BDG11.001; source: Expi-CHO, transfected, purified from the supernatant (protein A beads); copies: 2 + 2) VH: EVQLVQSGAEVKKPGESLKISCKGSGYSFTSYWIGWVRQMPGKGLEWMGIIYPSDSDTRYSPSFQGQVTISADKSISTAYLQWSSLKASDTAMYYCARYPNYGAFDIWGQGTMVTVSS VL: EIVLTQSPATLSLSPGERATLSCRASQSVSSYLAWYQQKPGQAPRLLIYDASNRATGIPARFSGSGSGTDFTLTISSLEPEDFAVYYCQQYFYWGWPFGQGTKLEIK
33.9 nM |  | no binding (tested: 100 nM antibody) | no binding (tested: 100 nM antibody) | no binding (tested: 100 nM antibody) | no binding (tested: 100 nM antibody) |  |  |  | BDG11.003 (human IgG1) (antibody, V domains shown, as the VH of m7 (BDG11.001); human IgG1 heavy-chain constant region, from the plasmid pSF-CMV-HuIgG1_HC; as the VL of m7 (BDG11.001) with W30F; that 11.003 is the W30F variant follows from the sentence that 11.003 has Phe30 in L1 where AAL160 has Ser; light-chain numbering; IgG1; seven mutations against AAL160; source: Expi-CHO, transfected, purified from the supernatant (protein A beads); …) VH: EVQLVQSGAEVKKPGESLKISCKGSGYSFTSYWIGWVRQMPGKGLEWMGIIYPSDSDTRYSPSFQGQVTISADKSISTAYLQWSSLKASDTAMYYCARYPNYGAFDIWGQGTMVTVSS VL: EIVLTQSPATLSLSPGERATLSCRASQSVFSYLAWYQQKPGQAPRLLIYDASNRATGIPARFSGSGSGTDFTLTISSLEPEDFAVYYCQQYFYWGWPFGQGTKLEIK
 |  |  |  |  |  | binds |  |  | clone 11.4_C12 scFv displayed on yeast (scFv, V domains shown, as the VH of m1 (AAL160) with changes in CDR H3; three repeats of the G4S linker between VH and VL; as the VL of m1 (AAL160) with changes; has W30, Y93 and W94 (light-chain numbering); also called 114_R5_C12; source: yeast surface display, EBY-100, induced at 37 to 40 °C) VH: EVQLVQSGAEVKKPGESLKISCKGSGYSFTSYWIGWVRQMPGKGLEWMGIIYPSDSDTRYSPSFQGQVTISADKSISTAYLQWSSLKASDTAMYYCARYPNYGAFDIWGQGTMVTVSS VL: EIVLTQSPATLSLSPGERATLSCRASQSVWSYLAWYQQKPGQAPRLLIYDASNRATGIPARFSGSGSGTDFTLTISSLEPEDFAVYYCQQYFYWSWPFGQGTKLEIK
 |  |  |  |  |  | no binding | binds |  | AAL160 scFv displayed on yeast (scFv, V domains shown, VH of AAL160; also held by the deposited AAL160 Fab structures; three repeats of the G4S linker between VH and VL; VL of AAL160; scFv in heavy to light-chain orientation; VH 99% identical to IGHV5-51*01, VL 100% identical to IGKV3-11*01; also called template antibody; anti-IL-1β antibody; source: yeast surface display, EBY-100, induced with galactose) VH: EVQLVQSGAEVKKPGESLKISCKGSGYSFTSYWIGWVRQMPGKGLEWMGIIYPSDSDTRYSPSFQGQVTISADKSISTAYLQWSSLKASDTAMYYCARYTNWDAFDIWGQGTMVTVSS VL: EIVLTQSPATLSLSPGERATLSCRASQSVSSYLAWYQQKPGQAPRLLIYDASNRATGIPARFSGSGSGTDFTLTISSLEPEDFAVYYCQQRSNWMFPFGQGTKLEIK
 |  |  |  |  |  | binds | no binding |  | clone 11.1_C5 scFv displayed on yeast (scFv, V domains shown, as the VH of m1 (AAL160) with changes; three repeats of the G4S linker between VH and VL; as the VL of m1 (AAL160) with changes; First-generation clone from library A_11.1; source: yeast surface display, EBY-100, induced with galactose) VH: EVQLVQSGAEVKKPGESLKISCKGSGYSFTSYWIGWVRQMPGKGLEWMGIIYPSDSDTRYSPSFQGQVTISADKSISTAYLQWSSLKASDTAMYYCARYTNYGNFDIWGQGTMVTVSS VL: EIVLTQSPATLSLSPGERATLSCRASQSVWWYLAWYQQKPGQAPRLLIYDASNRATGIPARFSGSGSGTDFTLTISSLEPEDFAVYYCQQGFYWPWPFGQGTKLEIK
286 nM |  | no binding (tested: 100 nM antibody) | no binding (tested: 100 nM antibody) | no binding (tested: 100 nM antibody) | no binding (tested: 100 nM antibody) |  |  |  | BDG11.007 (human IgG1) (antibody, V domains shown, as the VH of m7 (BDG11.001); human IgG1 heavy-chain constant region, from the plasmid pSF-CMV-HuIgG1_HC; as the VL of m7 (BDG11.001) with one substitution; light-chain numbering; as in the light chain of 11.003 in PDB 7Z2M; IgG1; single mutant of BDG11.001; source: Expi-CHO, transfected, purified from the supernatant (protein A beads); copies: 2 + 2) VH: EVQLVQSGAEVKKPGESLKISCKGSGYSFTSYWIGWVRQMPGKGLEWMGIIYPSDSDTRYSPSFQGQVTISADKSISTAYLQWSSLKASDTAMYYCARYPNYGAFDIWGQGTMVTVSS VL: EIVLTQSPATLSLSPGERATLSCRASQSVWSYLAWYQQKPGQAPRLLIYDASNRATGIPARFSGSGSGTDFTLTISSLEPEDFAVYYCQQYFNWGWPFGQGTKLEIK
 |  |  |  |  |  | binds | no binding |  | clone 11.1_C3 scFv displayed on yeast (scFv, V domains shown, as the VH of m1 (AAL160) with changes in CDR H3; numbers count on the scFv; three repeats of the G4S linker between VH and VL; as the VL of m1 (AAL160) with changes in CDR L1 and L3; First-generation clone from library A_11.1; nine mutations against AAL160, eight in H3 and L3 and one in L1; source: yeast surface display, EBY-100, induced with galactose) VH: EVQLVQSGAEVKKPGESLKISCKGSGYSFTSYWIGWVRQMPGKGLEWMGIIYPSDSDTRYSPSFQGQVTISADKSISTAYLQWSSLKASDTAMYYCARYTNYGNFDIWGQGTMVTVSS VL: EIVLTQSPATLSLSPGERATLSCRASQSVWSYLAWYQQKPGQAPRLLIYDASNRATGIPARFSGSGSGTDFTLTISSLEPEDFAVYYCQQGFYWPWPFGQGTKLEIK
 |  |  |  |  |  |  |  | binds | AAL160 Fab (Fab, V domains shown, Fab heavy-chain fragment of AAL160 after papain digestion; light chain of AAL160; also called parent AAL160 Fab; source: papain digestion of AAL160 at 37 °C, Fab purified over Protein A Sepharose Fast Flow) VH: EVQLVQSGAEVKKPGESLKISCKGSGYSFTSYWIGWVRQMPGKGLEWMGIIYPSDSDTRYSPSFQGQVTISADKSISTAYLQWSSLKASDTAMYYCARYTNWDAFDIWGQGTMVTVSS VL: EIVLTQSPATLSLSPGERATLSCRASQSVSSYLAWYQQKPGQAPRLLIYDASNRATGIPARFSGSGSGTDFTLTISSLEPEDFAVYYCQQRSNWMFPFGQGTKLEIK
